Data as given in the DeepSol protein solubility set.

Assay: soluble on expression in E. coli; label from the status in PepcDB or PDB records

Row | Sequence | soluble on expression in E. coli
1 | MQNRQVANATKVAVAGASGYAGGEILRLLLGHPAYADGRLRIGALTAATSAGSTLGEHHPHLTPLAHRVVEPTEAAVLGGHDAVFLALPHGHSAVLAQQLSPETLIIDCGADFRLTDAAVWERFYGSSHAGSWPYGLPELPGARDQLRGTRRIAVPGCYPTAALLALFPALAADLIEPAVTVVAVSGTSGAGRAATTDLLGAEVIGSARAYNIAGVHRHTPEIAQGLRAVTDRDVSVSFTPVLIPASRGILATCTARTRSPLSQLRAAYEKAYHAEPFIYLMPEGQLPRTGAVIGSNAAHIAVAVDEDAQTFVAIAAIDNLVKGTAGAAVQSMNLALGWPETDGLSVVGVAP | soluble
2 | MFYILNNVLKNIKTLDNVKSKFFLKDSFLKNKLKANNLDDNLSSHIFFNEIFVSLRDDEKKEEHKKVLLFNKVRNDKKHRKRAFQKRGYWKKMHYFIRKNNMMSYAFKVQNIDYEKIKKLKRGEVYSN | not soluble
3 | MSDICVIIAAYNAEATIAQAVTSALAEAEVAEVVVVDDASSDATAEAALAASDGSGRLIVERQAQNGGPSAARNRAVALSQAPRIAILDADDFFLPGRFARLDPDLDLAADNIVFVTPEHAARLDPTNLPAAPREVEMLDAERFALGNLAQGVHRGELGFLKPVMSRAFLTRHGLRYDERMWLGEDFDLYMRMLLLGARFGLTRAVGYAAVQRGASLSGRHRTADLAALEACCRAHLEMPASPATQEAMRRHLRQVQAKLLLRQFLDRKAEAGLGAALGFALAPPARFLPIAKGVARDKIAALRPPAPPRAERFLLPVLEHHHHHH | not soluble
4 | MSESYTLIKELKRQLKSAGLHYVDVAQHLNLSEGSVKRLLAEGQHISLERLERICQLIGLEMAELFKLAAAHNKGLESLTLEQEKQLVDDKALLLVAICVVNGYQFEQIVQQYTFNELELVQKLAHLDRLNIIDLQPNNKIRLRISPTFKWQMGGPIQRFFQQQVQDAFFQSYFSGEDEQLSMATGLMSVPTNKKLQQKLQKVIDEFYQACQSDSSLDMDEKHGTSLIIAMRRWTFPLFEPWERKPTQKSQN | not soluble
5 | DAVPEKSLNAALLCLQAMGALDDNGDVTEHGKKVYPLPIDALFADLVTRIPTKAEKEAMIDLAAALSVPAQLYQLQRGEAAEALEREEPLGCD | not soluble
6 | EEKVVAEQQADGTWLMDGWISIRKASNLLEHDLVDEAERYSTLGGYLLWQFGYIPAAGEQITVDGLIFEIVSVNKHNIGKVRVHRTQ | soluble
7 | MAHHHHHHMTRKVAGDMWDSRVEASLPALNYLRTAQQLQKKADELSRAQERVHRLQEDNSALLLENELLKRERDALLCKVQFLELNEHGHCTTNDIVGPWGNVRSVPAGGLGSTTGGDLSPVFKDNVNKASETRVNISEQARTHTNSEQQDLHNPKEETILCPLSASSETLINTNRPDANIETFHRSTESHVEYCANGECRSPISMTRTTQTVAYERRVPSVERGTMTTMNIYICSYQSLPSKAGAFFEVPLSNVETAIHHDPESLTSITIPRS | not soluble
8 | TDDVEEDGEPSYKRVAEPEEDESAKPFGGEKAKAARPEPAVKGVRHTSPAPTAAPEKKTSWWDSFKAWLKRIFGGSETQAAPAAETSEKRSTANRSGSRANNRRQNPRRSKREGSKVEVREVAGKTAGQEARADKAETRNNGNRRRNERGDRAAERANEAEIQSRNVQPAATVADAAPSETEVQTGKRRRNGSRSERGQTAPETATVAETTVQTAENTPSEPHTAEDKGSKPKSERNRRERDSRDAKERRERNNQRDRRQNGKKRNIPSAAKIEQYLNIHDTADKVRSAAAHVFGETDANAPITVSIADPVAERDLPTASPAVSNGDAPVYDAAEKIRRATAAILPEGATPKAEAQEMPSETATFTAAAEQARETAQTGGLVLIETDPAALKAWAAQPEVQAGRGLRRSEQPKPSEVATVPAEEMIQVETRQG | not soluble
9 | AYVITEPCIGTKDASCVEVCPVDCIHEGEDQYYIDPDVCIDCGACEAVCPVSAIYHEDFVPEEWKSYIQKNRDFFKK | soluble
10 | MGSDKIHHHHHHMMTQLSAPTLTKDPLTSQDRQIIATIVNQSDYSKECKPEDVVTIWINSDDIVWVKMTHGYARYHKQSFKRAVAEVKASLSAPVERNHKEEKELKQASEKIGLLGDCDWLSLSVQYHSDKVTGHAACYISHKARILTPLAEWDFTIPKWNMPAAICPDCDGHGCGNCGYRGTRAEDLCTPVDGYRLTYVGKTDIQTAHNVYLDGVFLGILFKVRNPDEIWENDPKTYYWQGSNGMKYWSLKEAVESFTQDVVTNKVPQVRQELAVA | not soluble
11 | MGSDKIHHHHHHMMYIGLPQWQHPAWSRLGLNDLADYSRYFSCVEGNTTFYALPSREIVGRWRDMTHDNFRFCFKFPSTISHKAALQNCDSDVSLFYQCLEPIEHRIGQLWLQLPATFGPVLLPVLWRFLDALPQGFSYGVEVRHPLFFTKGDEERALNQGLQQRGINRVILKRHI | not soluble
12 | MGSDAKNLMSDGNVQIVKTGEVIGATQLTEGELIVEAGGRAENTVVTGAGWLKVATGGIAKCTQYGNNGTLSVSDGAIATDIVQSEGGAISLSTLATVNGRHPEGEFSVDKGYACGLLLENGGNLRVLEGHRAEKIILDQEGGLLVNGTTSAVVVDEGGELLVYPGGEASNCEINQGGVFMLAGKASDTLLAGGTMNNLGGEDSDTIVENGSIYRLGTDGLQLYSSGKTQNLSVNVGGRAEVHAGTLENAVIQGGTVILLSPTSADENFVVEEDRAPVELTGSVALLDGASMIIGYGAELQQSTITVQQGGVLILDGSTVKGDSVTFIVGNINLNGGKLWLITDAATHVQLKVKRLRGEGAICLQTSAKEISPDFINVKGEVTGDIHVEITDASRQTLCNALKLQPDEDGIGATLQPA | soluble
13 | MSLVNIEFYESVAASEAKFINDTLIPQFEAEYPGIHVTFVNVGSEDVSKDILAMEASGHVGPIVAGQDNLEIGQLIYSSHGNVLMNLTAMSPALMPSSLIPAASNLVQYEQKVFGGIYFFPFRGNVPLVFYNKTALSDAGISSPPANYTQLLQDAMTIHSKTGKDPIMIQGASTNGGHTGSSTATEMYQMMVQFGGNPLYLNDTGDIHAVEMLYNLSAYFSPDFKTGYWGSYRGLAVGNYSILDYQWPYVYNILTASPYNMTNSTLGVYPGPAGPVNANHVLGGDVLFIPKGATNIPSLEAFIRFLLGAQAQRETLLNLSWVAINQNAYRNLPKSESVIFTALEQAIATGVFLRNPTPWITEWQVIFCNDVFNPLFVTHSKTYSDIPSLLSYAHSQMYSYIAANYGQANATLYNNPNAYAPISEGHHHHHH | not soluble
14 | MGSDKIHHHHHHMYLIGSDIGTQGTKSVIVNEKGEVLAEAFREYEVITPKPNWAEQWPDVWVKAVFETVKEVVEKSGVSKKEIAGIAISGLYGGSGIPVDRNMQPLRPCLIWMDRRAVKETEWVKQNVPKEKLFEITGNYVDSYFGFTKIMWIRNNEPEIWEKIYKFITPKDYVIYQMTGEVVIDYSSAGNLGGVFDIRKLTWSKEMCDVLGIPIEFLPERIVKSSDVVGRVTKEASELCGLLEGTPVVAGGIDAPVAQLSAGALEEGEHVAMVGTSTCWGTVHDGSKLAFGLVNYPYVVYDTERIYTFGGSATTGALARWFKEQFGESETIVGERTGISPYQLFDKEVANIPAGSEGIIVLPYFMGERSPIWDPTARGVFFGVTLYHKRAHLYRALMEGGAYALRHNMEEGLKAGLKLNDECWIVGGVSKSSVWVKIFADVTGFKMRQVASLVEAPYGDAFLAGLGTGVIDKPERIKEWVKYRDPVEPDPENKKIYDRYYEIYRELYERTKDLMARL | not soluble
15 | MDSRLSDFLARAESVLARLEPLLPAVREAVDWERSLAARWHRDGRSGYLQPLEVSLDLRLADLLGVERQREQLERNTRQFVAGQPANHALLWGARGTGKSSLVRALLAELAGAGLRLIEIERDHLADLPRVVEQLQGLPQRFVLFCDDLSFDAGEGDYRVLKSVLDGSLEQAPENVLLYATSNRRHLVSEKQSDNENWKMVDGELHPNEAVEDKIALSDRFGLWLSFYPFTQEHFLSVVHHWVDVLAEKAGLAWSWSEELEKEAIRWALGRGNRNGRCAYQFSRYWVGKQLLERQA | not soluble
16 | MSLKIRSITATPINLRLEAPYGWVFGELDGFSQTIVEVETEDGLIGLGEAPTPAAAAIINDVLAERLVGRDAFDIAGAEHVCLPYWTGVQSINDRTRIMAFGAIEMALWDLRGKAWNQPLYQLLGGAVRKDIPFTDYFSLRGDGPKVKGETTPEEVADYCVELHETHGTTFFEGKFSTEDPKVSLRMVELIRAKLGDEAMIRIDSNQAYSLATARRLARPLEELGVRNWEDPVATIEEMRQLRQHCSIPFSTHNIDIARAMDLKVPDAFVGNPTAHGGIGRLLRFVGACEHAGVDFWCYSGDSGIGSAAYLHLCAALGWIREPNQSLFRMQPMDITEEGPFSPRNNVVRVPEGPGLGVTLSRKNLAACHRDFAENGPCNKYHDPAKPGTYRRLPLNEGHHHHHH | soluble
17 | TSDQRKAEEHIEKEAKYLASLLDAGNLNNQANEKIIKDAGGALDVSASVIDTDGKVLYGSNGRSADSQKVQALVSGHEGILSTTDNKLYYGLSLRSEGEKTGYVLLSASEKSDGLKG | not soluble
18 | MTNYIYPKFGYLRSKEQAEGIVKRHPIVVIGAGPVGLTAALDCAARGQPVVLLDDNDTVSIGSRAVCYAKRPLEIWNRLDCADPMVERGVSWNVGKVFFRDELSYQFDLLPESDHEWPAMINLQQYHLEEILVARCRASPLIDLRWKHRLISLKQAADHAELAVETPDGIFTMEAQWVIACDGANSDTRKMVGAEFKGQYFEDRFLIADVAMKADFPTERWFWFDPPFHPAQSVLLHRQADDIWRIDFQLGWDADPDEEKRPERVIPRIKAMLGEDTEFELEWVSIYQFACRRIDKFRHGRVLFAGDAAHQVSPFGARGANTGVQDIDNLAWKLAMVLRGEAPEALLDSYHDERAYAADDNILNSTRATDFITPKTKVSRHFRDAVLELAQHHGFARPLVNSGRLSTPTPYVTSPLNTFDDSLLDGEMRPGTNAADAPVTIGGKPDWFLNCLGAGFVVVTFDQAVDNERIEVGPIAARVIRVGRDIDDPRGVLASRYGTSTGTTYLFRPDQYVAARWAGFDEGKISAALLRATAQDAVRQKEIAALEHHHHHH | not soluble
19 | MSLTMPAESAATVRGRRYPADPEWFCDFRTFPVQGLGPEVGVHRRDPSSVLTVDGRYHVWYTRSTGETDGFGTGDPMAKVFPWDWSEIWHATSDDGATWVEQGRALGRGEPGSYDDRSVFTPEVLEHQGWFYLVYQVIRSPYALRSFESIAMAKAPSPDGPWVRSPQPILRPQADGEWAGEEDNRLSVVSQGSFDSHKVHDPILVPFQGRFFLYYKGEQMGEGFSAGGRTTRWGLAIADDIEGPYHRCPANPVTNSGHETCVWRYGDGIAAMLTTDGPERNTIQFAPDGINFEIMAHIANPPVATGPLRLPDHAVAPLDGVRWGLCHDVTASWHYIQGFAADERQKMFYTRGLSPETAESAEADALPAPHEKEGHHHHHH | soluble
20 | LKSESAEKTREVLWQQYYASNPPDHAVLEVLATPVREALLARFGQHQGSVVPAIDLPELRSVLQQFDSFGKRWEAILLQVLEGIKPNESQVGLPYLSELINKELMILLPSNS | soluble
21 | MSATAKAPYSKTFIRSCILYEVLQKKPVFEAYQKICRSLKERISYQEFDYWFYKFYNGNHDLEDEISDEQSLVNPLLDMSNNLSEKEWCRSFVQFFHGLPPRPNKKPAFSLQSMPRKVWQELCSKLEPCDRLVAKKVTRRFRQTIDEQDNLFNTLGICFEDDKTRIFFNEKTFHYTSVGNECRITLDLFTKEDAIKIKDILTRSDNFKYANFESGNFDPIEIANVFIPNYQSNHWPIINYMRHNKKFLLKITPMTFQIKKID | not soluble
22 | MSLKSYILLIKCKTDTTIRTKSKKFLIRKGVYAYVGSCGRSCGRRVSRHFNKEKSNYHWHIDYLTKACEPIGVFVMNHVGEKELALLFSKNNAFIEEFGSSDDKDAKSHLFIVNDLQELCSTVCDKSREREGHHHHHH | soluble
